Experimental data taken from US20140228541A1.

Legend:
[1] = molecular target: carcinoembryonic antigen (CEA) (UniProt P06731); test: SEC-HPLC shift; the labeled Fab in serum without CEA eluted at 10.331 min
[2] = molecular target: somatostatin receptors on AR42J cells (rat); test: competition with ^111In(DTPA-octreotide) on AR42J cells, apparent IC50
[3] = molecular target: gastrin-releasing peptide receptor on PC-3 cells (UniProt P30550); test: competition with ^125I-BBN on PC-3 cells, repeat experiment
[4] = molecular target: binding target of the bombesin analog IMP493 (not named in the paragraph); test: assay not described

Sequence of somatostatin receptors on AR42J cells (rat) (P30680 whole entry): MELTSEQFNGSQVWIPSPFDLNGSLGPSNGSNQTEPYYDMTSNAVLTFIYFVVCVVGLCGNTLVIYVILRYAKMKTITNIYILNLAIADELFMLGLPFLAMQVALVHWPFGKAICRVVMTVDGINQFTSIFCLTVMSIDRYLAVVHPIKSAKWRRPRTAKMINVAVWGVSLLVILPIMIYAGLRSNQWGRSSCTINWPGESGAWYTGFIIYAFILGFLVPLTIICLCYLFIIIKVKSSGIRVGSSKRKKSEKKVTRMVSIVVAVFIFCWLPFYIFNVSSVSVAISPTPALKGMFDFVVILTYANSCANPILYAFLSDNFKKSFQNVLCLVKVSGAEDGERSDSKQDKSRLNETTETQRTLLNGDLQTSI
Sequence of gastrin-releasing peptide receptor on PC-3 cells (P30550 whole entry): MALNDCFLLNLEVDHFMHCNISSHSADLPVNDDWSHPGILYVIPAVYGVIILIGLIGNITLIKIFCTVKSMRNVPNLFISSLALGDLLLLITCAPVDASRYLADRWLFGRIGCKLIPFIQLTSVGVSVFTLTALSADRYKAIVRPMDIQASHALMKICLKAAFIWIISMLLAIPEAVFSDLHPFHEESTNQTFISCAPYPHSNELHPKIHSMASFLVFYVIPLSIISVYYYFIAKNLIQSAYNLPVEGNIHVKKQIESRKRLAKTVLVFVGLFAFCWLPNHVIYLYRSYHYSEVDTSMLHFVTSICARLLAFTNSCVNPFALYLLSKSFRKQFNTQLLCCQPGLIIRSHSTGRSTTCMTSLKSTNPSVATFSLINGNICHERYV
Sequence of carcinoembryonic antigen (CEA) (P06731 35-685 limits assumed): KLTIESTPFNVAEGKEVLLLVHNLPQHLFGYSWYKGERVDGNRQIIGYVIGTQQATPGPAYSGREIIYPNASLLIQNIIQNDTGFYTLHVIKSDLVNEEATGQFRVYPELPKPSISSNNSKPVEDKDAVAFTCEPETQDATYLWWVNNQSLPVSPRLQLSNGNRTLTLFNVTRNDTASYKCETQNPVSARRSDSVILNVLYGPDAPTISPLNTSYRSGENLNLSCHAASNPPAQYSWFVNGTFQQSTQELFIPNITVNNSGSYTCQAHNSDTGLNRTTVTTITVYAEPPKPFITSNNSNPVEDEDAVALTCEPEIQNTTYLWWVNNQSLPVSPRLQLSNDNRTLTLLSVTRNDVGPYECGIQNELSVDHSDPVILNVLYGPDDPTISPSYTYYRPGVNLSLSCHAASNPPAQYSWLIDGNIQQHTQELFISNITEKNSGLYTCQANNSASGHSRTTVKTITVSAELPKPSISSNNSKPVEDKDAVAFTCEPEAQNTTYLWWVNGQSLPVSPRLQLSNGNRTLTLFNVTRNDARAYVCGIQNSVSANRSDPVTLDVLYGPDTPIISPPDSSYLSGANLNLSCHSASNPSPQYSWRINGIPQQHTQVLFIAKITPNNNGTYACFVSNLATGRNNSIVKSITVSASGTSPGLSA

**Q.** How did the SEC-HPLC retention time of major product after adding CEA [1] turn out when Al^18F(NODA-MPAES)-hMN-14 Fab′ was run?
**A.** Its SEC-HPLC retention time of major product after adding CEA is 7.21 min.

**Q.** ^69Ga(IMP466) (peptide) was tested. Which IC50 [2] did it give?
**A.** The IC50 was 13 nM.

**Q.** How did the IC50 [2] turn out when “Al^19F(IMP466) (Al^19F complex of NOTA-D-Phe-Cys-Phe-D-Trp-Lys-Thr-Cys-Throl) (peptide)” was run?
**A.** The IC50 was 3.6 nM.

**Q.** How did the IC50 [3] turn out when “commercially available BBN peptide (positive control)” was run?
**A.** Its IC50 is 24.4 nM.

**Q.** With ^125I-Bombesin (Perkin-Elmer) (peptide) as the substance, how does the EC50 [4] read?
**A.** The EC50 was 59 nM.
